Source: patent US9469685 (UNIVERSITY OF CHICAGO, dated 2016)

Target: HA of the 1918 pandemic strain, A/Brevig Mission/1/1918 (H1N1) (influenza A virus A/Brevig …, UniProt Q9WFX3 18-529)
Experiment: ELISA (FIG. 3B, FIG. 8A)

Chain of HA of the 1918 pandemic strain, A/Brevig Mission/1/1918 (H1N1) (Q9WFX3 18-529 limits assumed): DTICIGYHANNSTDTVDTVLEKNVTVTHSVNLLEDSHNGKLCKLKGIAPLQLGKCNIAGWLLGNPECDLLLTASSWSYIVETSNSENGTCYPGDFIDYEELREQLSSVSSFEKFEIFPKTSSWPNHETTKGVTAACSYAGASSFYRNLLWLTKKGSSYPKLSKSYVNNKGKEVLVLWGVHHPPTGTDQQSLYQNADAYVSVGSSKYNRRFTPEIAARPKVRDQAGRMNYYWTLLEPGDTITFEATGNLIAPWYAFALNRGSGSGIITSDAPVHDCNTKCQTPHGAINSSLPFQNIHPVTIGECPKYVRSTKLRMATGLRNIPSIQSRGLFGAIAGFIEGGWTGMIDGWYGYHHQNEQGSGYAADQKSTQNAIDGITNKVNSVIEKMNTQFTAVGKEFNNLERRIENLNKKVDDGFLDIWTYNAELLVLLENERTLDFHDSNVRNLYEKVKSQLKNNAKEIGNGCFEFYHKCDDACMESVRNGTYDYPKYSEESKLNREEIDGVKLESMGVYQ

B1: 70-5B03 (antibody, V domains shown)
VH: QVQLVQSGAEVKKPGSSVKVSCKASGGTFRNFAVSWVRQAPGQGPEWMGGIIAIFGTAKYAQKFQGRVTISADESTRIVQMELSSLRSDDTAIYYCASSSGSYYGDYFDYWGQGTLVTVSS
VL: EIVMTQSPATLSVSPGERATLSCRASQSVSSNLAWYQQTPGQAPRLLIYAASSRATGIPARFSGSGSGTEFTLSISSLQPEDFAVYYCQQYNNWPRTFGQGTKVEIK
  binding result: binds
